Reference: publication PMC10786891, “Massively parallel profiling of RNA-targeting CRISPR-Cas13d”

T1: EsCas13d, nuclease-dead (Eubacterium siraeum, UniProt B0MS50, R295A;H300A;R849A;H854A)
T1 sequence: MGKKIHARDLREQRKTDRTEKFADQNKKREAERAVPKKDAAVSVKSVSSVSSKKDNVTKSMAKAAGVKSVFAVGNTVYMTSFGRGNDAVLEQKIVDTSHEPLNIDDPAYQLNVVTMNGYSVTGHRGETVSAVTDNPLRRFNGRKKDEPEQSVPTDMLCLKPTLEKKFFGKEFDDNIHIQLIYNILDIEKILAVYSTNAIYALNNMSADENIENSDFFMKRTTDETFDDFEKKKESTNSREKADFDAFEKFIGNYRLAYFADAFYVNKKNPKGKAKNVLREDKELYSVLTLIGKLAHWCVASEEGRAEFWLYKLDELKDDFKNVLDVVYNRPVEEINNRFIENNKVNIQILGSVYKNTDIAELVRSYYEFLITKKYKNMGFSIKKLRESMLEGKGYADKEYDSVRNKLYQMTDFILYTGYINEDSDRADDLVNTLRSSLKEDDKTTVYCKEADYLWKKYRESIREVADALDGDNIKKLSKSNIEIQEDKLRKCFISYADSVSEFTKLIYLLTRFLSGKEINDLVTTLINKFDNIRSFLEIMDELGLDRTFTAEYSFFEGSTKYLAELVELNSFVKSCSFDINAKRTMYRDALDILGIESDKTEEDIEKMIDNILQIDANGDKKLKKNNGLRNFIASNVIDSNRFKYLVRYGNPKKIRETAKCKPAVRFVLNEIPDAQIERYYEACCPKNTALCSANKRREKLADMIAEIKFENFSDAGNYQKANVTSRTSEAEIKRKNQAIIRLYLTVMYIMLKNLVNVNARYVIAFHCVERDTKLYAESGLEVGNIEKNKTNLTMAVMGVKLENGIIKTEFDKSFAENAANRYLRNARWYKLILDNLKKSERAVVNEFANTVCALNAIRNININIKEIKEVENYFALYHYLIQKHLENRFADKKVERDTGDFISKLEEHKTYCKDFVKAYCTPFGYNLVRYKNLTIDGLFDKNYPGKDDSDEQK


Target: T1, EsCas13d, nuclease-dead
Assay: crRNA (strand 1, pre-loaded); Mg2+; 40 mM Tris-HCl pH 7.5, 150 mM NaCl, 6 mM MgCl2, 1 mM DTT, 0.1% Tween-20, 0.2 mg/ml BSA; 25 C; 10 min per concentration, then washed
Settings: tags: His6-TwinStrep-SUMO cleaved; N-terminal SNAP kept (SNAP-Surface 488); label: 3' end held by stalled T7 RNA polymerase

Binder | Kd [nM]
target 1 insA 3' of 21,insU 3' of 5 (mixed) RNA 1: CACCCGUGCAAAAAUGCAGGGGUCUAAAACUGAGCGGAUAACCUCUCUAUGG RNA 2: GGGAAUGGAUCCACAUCUACGAAUUCGUACCAAUAGAGAGGUUAUCCGUCUCACCGAGAUCGGAAGAGCACACGU | 30 ± 5
target 1 insC 3' of 12 (mixed) RNA 1: CACCCGUGCAAAAAUGCAGGGGUCUAAAACUGAGCGGAUAACCUCUCUAUGG RNA 2: GGGAAUGGAUCCACAUCUACGAAUUCGUACCAUAGAGAGGCUUAUCCGCUCACCGAGAUCGGAAGAGCACACGU | 8.3 ± 0.5
target 1 insG 3' of 7,insG 3' of 1 (mixed) RNA 1: CACCCGUGCAAAAAUGCAGGGGUCUAAAACUGAGCGGAUAACCUCUCUAUGG RNA 2: GGGAAUGGAUCCACAUCUACGAAUUCGUACCAUAGAGAGGUUAUCGCGCUCAGCCGAGAUCGGAAGAGCACACGU | 6.65 ± 0.35
target 1 U3G,A9U (mixed) RNA 1: CACCCGUGCAAAAAUGCAGGGGUCUAAAACUGAGCGGAUAACCUCUCUAUGG RNA 2: GGGAAUGGAUCCACAUCUACGAAUUCGUACCAUAGAGAGGUUUUCCGCGCACCGAGAUCGGAAGAGCACACGU | 7.5 ± 0.7
target 1 insU 3' of 21,insG 3' of 9 (mixed) RNA 1: CACCCGUGCAAAAAUGCAGGGGUCUAAAACUGAGCGGAUAACCUCUCUAUGG RNA 2: GGGAAUGGAUCCACAUCUACGAAUUCGUACCUAUAGAGAGGUUAGUCCGCUCACCGAGAUCGGAAGAGCACACGU | 77 ± 19
target 1 insA 3' of 21,insU 3' of 18 (mixed) RNA 1: CACCCGUGCAAAAAUGCAGGGGUCUAAAACUGAGCGGAUAACCUCUCUAUGG RNA 2: GGGAAUGGAUCCACAUCUACGAAUUCGUACCAAUAUGAGAGGUUAUCCGCUCACCGAGAUCGGAAGAGCACACGU | 46 ± 7
target 1 insG 3' of 7,insC 3' of 1 (mixed) RNA 1: CACCCGUGCAAAAAUGCAGGGGUCUAAAACUGAGCGGAUAACCUCUCUAUGG RNA 2: GGGAAUGGAUCCACAUCUACGAAUUCGUACCAUAGAGAGGUUAUCGCGCUCACCCGAGAUCGGAAGAGCACACGU | 7.6 ± 0.5
target 1 U10A,A16C (mixed) RNA 1: CACCCGUGCAAAAAUGCAGGGGUCUAAAACUGAGCGGAUAACCUCUCUAUGG RNA 2: GGGAAUGGAUCCACAUCUACGAAUUCGUACCAUAGCGAGGUAAUCCGCUCACCGAGAUCGGAAGAGCACACGU | 68 ± 10
target 1 G17A,C21A (mixed) RNA 1: CACCCGUGCAAAAAUGCAGGGGUCUAAAACUGAGCGGAUAACCUCUCUAUGG RNA 2: GGGAAUGGAUCCACAUCUACGAAUUCGUACAAUAAAGAGGUUAUCCGCUCACCGAGAUCGGAAGAGCACACGU | 56 ± 7
target 1 del11 (mixed) RNA 1: CACCCGUGCAAAAAUGCAGGGGUCUAAAACUGAGCGGAUAACCUCUCUAUGG RNA 2: GGGAAUGGAUCCACAUCUACGAAUUCGUACCAUAGAGAGGUAUCCGCUCACCGAGAUCGGAAGAGCACACGU | 15.9 ± 0.9
target 1 A16G,C22A (mixed) RNA 1: CACCCGUGCAAAAAUGCAGGGGUCUAAAACUGAGCGGAUAACCUCUCUAUGG RNA 2: GGGAAUGGAUCCACAUCUACGAAUUCGUAACAUAGGGAGGUUAUCCGCUCACCGAGAUCGGAAGAGCACACGU | 51 ± 10
target 1 U3A,G5U (mixed) RNA 1: CACCCGUGCAAAAAUGCAGGGGUCUAAAACUGAGCGGAUAACCUCUCUAUGG RNA 2: GGGAAUGGAUCCACAUCUACGAAUUCGUACCAUAGAGAGGUUAUCCUCACACCGAGAUCGGAAGAGCACACGU | 14.4 ± 1
target 1 insC 3' of 20,insC 3' of 11 (mixed) RNA 1: CACCCGUGCAAAAAUGCAGGGGUCUAAAACUGAGCGGAUAACCUCUCUAUGG RNA 2: GGGAAUGGAUCCACAUCUACGAAUUCGUACCACUAGAGAGGUCUAUCCGCUCACCGAGAUCGGAAGAGCACACGU | 11.2 ± 1.1
target 1 del3,del7 (mixed) RNA 1: CACCCGUGCAAAAAUGCAGGGGUCUAAAACUGAGCGGAUAACCUCUCUAUGG RNA 2: GGGAAUGGAUCCACAUCUACGAAUUCGUACCAUAGAGAGGUUAUCGCCACCGAGAUCGGAAGAGCACACGU | 4.94 ± 0.21
target 1 C4G,U11C (mixed) RNA 1: CACCCGUGCAAAAAUGCAGGGGUCUAAAACUGAGCGGAUAACCUCUCUAUGG RNA 2: GGGAAUGGAUCCACAUCUACGAAUUCGUACCAUAGAGAGGCUAUCCGGUCACCGAGAUCGGAAGAGCACACGU | 9 ± 0.8
target 1 insG 3' of 7,insA 3' of 2 (mixed) RNA 1: CACCCGUGCAAAAAUGCAGGGGUCUAAAACUGAGCGGAUAACCUCUCUAUGG RNA 2: GGGAAUGGAUCCACAUCUACGAAUUCGUACCAUAGAGAGGUUAUCGCGCUCAACCGAGAUCGGAAGAGCACACGU | 6.36 ± 0.31
target 1 insC 3' of 11,insU 3' of 6 (mixed) RNA 1: CACCCGUGCAAAAAUGCAGGGGUCUAAAACUGAGCGGAUAACCUCUCUAUGG RNA 2: GGGAAUGGAUCCACAUCUACGAAUUCGUACCAUAGAGAGGUCUAUCCUGCUCACCGAGAUCGGAAGAGCACACGU | 69 ± 8
target 1 insU 3' of 17,insC 3' of 1 (mixed) RNA 1: CACCCGUGCAAAAAUGCAGGGGUCUAAAACUGAGCGGAUAACCUCUCUAUGG RNA 2: GGGAAUGGAUCCACAUCUACGAAUUCGUACCAUAGUAGAGGUUAUCCGCUCACCCGAGAUCGGAAGAGCACACGU | 18 ± 2.4
target 1 del4,del9 (mixed) RNA 1: CACCCGUGCAAAAAUGCAGGGGUCUAAAACUGAGCGGAUAACCUCUCUAUGG RNA 2: GGGAAUGGAUCCACAUCUACGAAUUCGUACCAUAGAGAGGUUUCCGUCACCGAGAUCGGAAGAGCACACGU | 78 ± 15
target 1 U10G,A14G (mixed) RNA 1: CACCCGUGCAAAAAUGCAGGGGUCUAAAACUGAGCGGAUAACCUCUCUAUGG RNA 2: GGGAAUGGAUCCACAUCUACGAAUUCGUACCAUAGAGGGGUGAUCCGCUCACCGAGAUCGGAAGAGCACACGU | 23.3 ± 1.3
target 1 insU 3' of 20,insG 3' of 11 (mixed) RNA 1: CACCCGUGCAAAAAUGCAGGGGUCUAAAACUGAGCGGAUAACCUCUCUAUGG RNA 2: GGGAAUGGAUCCACAUCUACGAAUUCGUACCAUUAGAGAGGUGUAUCCGCUCACCGAGAUCGGAAGAGCACACGU | 51 ± 12
target 1 insA 3' of 19,insU 3' of 15 (mixed) RNA 1: CACCCGUGCAAAAAUGCAGGGGUCUAAAACUGAGCGGAUAACCUCUCUAUGG RNA 2: GGGAAUGGAUCCACAUCUACGAAUUCGUACCAUAAGAGUAGGUUAUCCGCUCACCGAGAUCGGAAGAGCACACGU | 23.2 ± 2.6
target 1 insU 3' of 17,insA 3' of 2 (mixed) RNA 1: CACCCGUGCAAAAAUGCAGGGGUCUAAAACUGAGCGGAUAACCUCUCUAUGG RNA 2: GGGAAUGGAUCCACAUCUACGAAUUCGUACCAUAGUAGAGGUUAUCCGCUCAACCGAGAUCGGAAGAGCACACGU | 17.6 ± 1.8
target 1 insA 3' of 15,insC 3' of 13 (mixed) RNA 1: CACCCGUGCAAAAAUGCAGGGGUCUAAAACUGAGCGGAUAACCUCUCUAUGG RNA 2: GGGAAUGGAUCCACAUCUACGAAUUCGUACCAUAGAGAAGCGUUAUCCGCUCACCGAGAUCGGAAGAGCACACGU | 16.4 ± 2.3
